Test results published in patent US20120238493A1 (INDIANA UNIVERSITY RESEARCH AND TECHNOLOGY, published 2012).
Where two headings read alike, the source gives them in different places. Bridges are numbered along the chain shown (N, C = ends). Where no end group is shown, it is not given here. Side-chain parts run from the residue outwards. [ ]: non-standard residue; d: D form. PEG40kDa = 40 kDa polyethylene glycol attached; Aib = CC(C)(N)C(=O)O

Columns and labels:
Experiment in all cases: cell-based or functional assay
GLP-1 receptor [1] = molecular target: T1, GLP-1 receptor (UniProt P43220 24-463, limits assumed)
GIP receptor [2] = molecular target: T2, GIP receptor (UniProt P48546 22-466, limits assumed)
T2 sequence (looked up): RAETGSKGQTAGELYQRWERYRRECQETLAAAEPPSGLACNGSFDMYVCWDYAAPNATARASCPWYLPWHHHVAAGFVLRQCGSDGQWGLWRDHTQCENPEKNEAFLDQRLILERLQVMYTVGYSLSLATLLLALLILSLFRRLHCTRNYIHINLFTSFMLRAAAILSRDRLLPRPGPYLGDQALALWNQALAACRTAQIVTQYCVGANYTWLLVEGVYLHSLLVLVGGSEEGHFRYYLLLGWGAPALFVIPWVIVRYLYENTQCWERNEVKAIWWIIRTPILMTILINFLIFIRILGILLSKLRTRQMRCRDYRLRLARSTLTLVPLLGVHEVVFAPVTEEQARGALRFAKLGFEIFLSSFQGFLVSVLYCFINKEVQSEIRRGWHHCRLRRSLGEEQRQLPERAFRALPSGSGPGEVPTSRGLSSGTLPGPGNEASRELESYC

glucagon receptor [3] = molecular target: T3, glucagon receptor (UniProt P47871 26-477, limits assumed)
T3 sequence (P47871 26-477 limits assumed): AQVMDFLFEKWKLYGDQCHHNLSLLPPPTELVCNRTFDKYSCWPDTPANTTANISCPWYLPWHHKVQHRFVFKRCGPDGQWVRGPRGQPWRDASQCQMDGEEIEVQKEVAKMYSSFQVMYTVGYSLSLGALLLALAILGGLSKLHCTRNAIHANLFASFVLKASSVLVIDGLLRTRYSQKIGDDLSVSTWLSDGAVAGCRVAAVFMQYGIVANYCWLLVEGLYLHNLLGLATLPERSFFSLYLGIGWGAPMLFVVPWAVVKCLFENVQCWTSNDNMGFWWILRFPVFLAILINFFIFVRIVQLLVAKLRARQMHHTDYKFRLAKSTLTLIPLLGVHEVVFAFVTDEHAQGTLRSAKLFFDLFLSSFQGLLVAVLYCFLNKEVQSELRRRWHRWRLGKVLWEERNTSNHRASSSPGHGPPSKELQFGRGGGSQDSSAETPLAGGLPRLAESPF

GLP-1 receptor [4] = molecular target: T1, GLP-1 receptor; remark: listed apart in the source
GIP receptor [5] = molecular target: T2, GIP receptor; remark: listed apart in the source
glucagon receptor [6] = molecular target: T3, glucagon receptor; remark: listed apart in the source
GIP receptor [7] = molecular target: T2, GIP receptor; remark: listed apart in the source
glucagon receptor [8] = molecular target: T3, glucagon receptor; remark: listed apart in the source
GLP-1 receptor [9] = molecular target: T1, GLP-1 receptor; remark: listed apart in the source

## Y[Aib]QGTFTSDYSIYLDEQAAKEFVNWLLAGGPSSGAPPPSK-NH2 (not fully specified) [mt-227 (SEQ ID NO: 25)]
GLP-1 receptor [1]
  EC50 (cAMP reporter): 80 pM
GIP receptor [2]
  EC50 (cAMP reporter): 1320 pM
Glucagon receptor [3]
  EC50 (cAMP reporter): 4240 pM

## Y[Aib]PGTFISDYSIAMDKIHQQDFVC(PEG40kDa)WLLAQKGKKNWLKHNITQ-NH2 (not fully specified) [mt-228 (SEQ ID NO: 26)]
GLP-1 receptor [1]
  EC50 (cAMP reporter): 146 pM
GIP receptor [2]
  EC50 (cAMP reporter): 2270 pM
Glucagon receptor [3]
  EC50 (cAMP reporter): 5360 pM

## Y[Aib]QGTFTSDYSIYLDKKAA[Aib]EFVNWLLAGGPSSGAPPPSK-NH2 [mt-402 (SEQ ID NO: 11)]
GLP-1 receptor [4]
  EC50 (cAMP reporter): 7 pM
GIP receptor [5]
  EC50 (cAMP reporter): 18.5 pM

B1: mt-403 (SEQ ID NO: 12) (peptide)
peptide: HSQGTFISDYSKYLDEIHQKEFIAWLMNT-NH2
modifications: lactam 16-20; not fully specified (residue 2); also: AIB at position 2 and position 20 (given S and K), any further modification only
GLP-1 receptor [4]
  EC50 (cAMP reporter): 2.7 pM
  relative activity (to native hormone): 582%
GIP receptor [5]
  EC50 (cAMP reporter): 6.1 pM
  relative activity (to native hormone): 273%
Glucagon receptor [6]
  EC50 (cAMP reporter): 7.7 pM
  relative activity (to native hormone): 987%

## Y[Aib]EGTFTSDYSIYLDKQAA[Aib]EFVNWLLAGGPSSGAPPPSK-NH2 [mt-263 (SEQ ID NO: 10)]
GIP receptor [5]
  EC50 (cAMP reporter): 5.4 pM
Glucagon receptor [6]
  EC50 (cAMP reporter): 4040 pM
GIP receptor [7]
  EC50 (cAMP reporter): 3.3 pM
Glucagon receptor [8]
  EC50 (cAMP reporter): 3140 pM

B2: mt-395 (SEQ ID NO: 15) (peptide)
peptide: HSQGTFTSDYSKYLDEIHQKDFVNWLLAGGPSSGAPPPS-NH2
modifications: lactam 16-20; N-terminus assumed
SMILES: CC[C@H](C)[C@@H]1NC(=O)[C@@H](NC(=O)[C@H](CC(=O)O)NC(=O)[C@H](CC(C)C)NC(=O)[C@H](Cc2ccc(O)cc2)NC(=O)[C@H](CCCCN)NC(=O)[C@H](CO)NC(=O)[C@H](Cc2ccc(O)cc2)NC(=O)[C@H](CC(=O)O)NC(=O)[C@H](CO)NC(=O)[C@@H](NC(=O)[C@H](Cc2ccccc2)NC(=O)[C@@H](NC(=O)CNC(=O)[C@H](CCC(N)=O)NC(=O)[C@H](CO)NC(=O)[C@@H](N)Cc2c[nH]cn2)[C@@H](C)O)[C@@H](C)O)CCC(=O)NCCCC[C@@H](C(=O)N[C@@H](CC(=O)O)C(=O)N[C@@H](Cc2ccccc2)C(=O)N[C@H](C(=O)N[C@@H](CC(N)=O)C(=O)N[C@@H](Cc2c[nH]c3ccccc23)C(=O)N[C@@H](CC(C)C)C(=O)N[C@@H](CC(C)C)C(=O)N[C@@H](C)C(=O)NCC(=O)NCC(=O)N2CCC[C@H]2C(=O)N[C@@H](CO)C(=O)N[C@@H](CO)C(=O)NCC(=O)N[C@@H](C)C(=O)N2CCC[C@H]2C(=O)N2CCC[C@H]2C(=O)N2CCC[C@H]2C(=O)N[C@@H](CO)C(N)=O)C(C)C)NC(=O)[C@H](CCC(N)=O)NC(=O)[C@H](Cc2c[nH]cn2)NC1=O
GLP-1 receptor [9]
  EC50 (cAMP reporter): 7.6 pM
  relative activity (to native hormone): 322%
GIP receptor [7]
  EC50 (cAMP reporter): 2.5 pM
  relative activity (to native hormone): 537%
Glucagon receptor [8]
  EC50 (cAMP reporter): 3410 pM
  relative activity (to native hormone): 0.87%

B3: mt-396 (SEQ ID NO: 16) (peptide)
peptide: YSQGTFTSDYSKYLDEIHQKDFVNWLLAGGPSSGAPPPS-NH2
modifications: lactam 16-20; N-terminus assumed
SMILES: CC[C@H](C)[C@@H]1NC(=O)[C@@H](NC(=O)[C@H](CC(=O)O)NC(=O)[C@H](CC(C)C)NC(=O)[C@H](Cc2ccc(O)cc2)NC(=O)[C@H](CCCCN)NC(=O)[C@H](CO)NC(=O)[C@H](Cc2ccc(O)cc2)NC(=O)[C@H](CC(=O)O)NC(=O)[C@H](CO)NC(=O)[C@@H](NC(=O)[C@H](Cc2ccccc2)NC(=O)[C@@H](NC(=O)CNC(=O)[C@H](CCC(N)=O)NC(=O)[C@H](CO)NC(=O)[C@@H](N)Cc2ccc(O)cc2)[C@@H](C)O)[C@@H](C)O)CCC(=O)NCCCC[C@@H](C(=O)N[C@@H](CC(=O)O)C(=O)N[C@@H](Cc2ccccc2)C(=O)N[C@H](C(=O)N[C@@H](CC(N)=O)C(=O)N[C@@H](Cc2c[nH]c3ccccc23)C(=O)N[C@@H](CC(C)C)C(=O)N[C@@H](CC(C)C)C(=O)N[C@@H](C)C(=O)NCC(=O)NCC(=O)N2CCC[C@H]2C(=O)N[C@@H](CO)C(=O)N[C@@H](CO)C(=O)NCC(=O)N[C@@H](C)C(=O)N2CCC[C@H]2C(=O)N2CCC[C@H]2C(=O)N2CCC[C@H]2C(=O)N[C@@H](CO)C(N)=O)C(C)C)NC(=O)[C@H](CCC(N)=O)NC(=O)[C@H](Cc2c[nH]cn2)NC1=O
GLP-1 receptor [9]
  EC50 (cAMP reporter): 9.3 pM
  relative activity (to native hormone): 262%
GIP receptor [7]
  EC50 (cAMP reporter): 3.4 pM
  relative activity (to native hormone): 403%
Glucagon receptor [8]
  EC50 (cAMP reporter): 2900 pM
  relative activity (to native hormone): 1.03%

B4: mt-397 (SEQ ID NO: 17) (peptide)
peptide: YSQGTFTSDYSKYLDEIHQKEFVNWLLAQ-NH2
modifications: staple (positions not given here); not fully specified; also: olefinic cross-link, positions not given here
GLP-1 receptor [9]
  EC50 (cAMP reporter): 8.5 pM
  relative activity (to native hormone): 288%
GIP receptor [7]
  EC50 (cAMP reporter): 2.9 pM
  relative activity (to native hormone): 470%
Glucagon receptor [8]
  EC50 (cAMP reporter): 5350 pM
  relative activity (to native hormone): 0.56%

B5: mt-398 (SEQ ID NO: 18) (peptide)
peptide: YSQGTFTSDYSKYLDEQAAKEFIAWLMNGGPSSGAPPPS-NH2
modifications: lactam 16-20; N-terminus assumed
SMILES: CC[C@H](C)[C@H](NC(=O)[C@H](Cc1ccccc1)NC(=O)[C@H](CCC(=O)O)NC(=O)[C@@H]1CCCCNC(=O)CC[C@H](NC(=O)[C@H](CC(=O)O)NC(=O)[C@H](CC(C)C)NC(=O)[C@H](Cc2ccc(O)cc2)NC(=O)[C@H](CCCCN)NC(=O)[C@H](CO)NC(=O)[C@H](Cc2ccc(O)cc2)NC(=O)[C@H](CC(=O)O)NC(=O)[C@H](CO)NC(=O)[C@@H](NC(=O)[C@H](Cc2ccccc2)NC(=O)[C@@H](NC(=O)CNC(=O)[C@H](CCC(N)=O)NC(=O)[C@H](CO)NC(=O)[C@@H](N)Cc2ccc(O)cc2)[C@@H](C)O)[C@@H](C)O)C(=O)N[C@@H](CCC(N)=O)C(=O)N[C@@H](C)C(=O)N[C@@H](C)C(=O)N1)C(=O)N[C@@H](C)C(=O)N[C@@H](Cc1c[nH]c2ccccc12)C(=O)N[C@@H](CC(C)C)C(=O)N[C@@H](CCSC)C(=O)N[C@@H](CC(N)=O)C(=O)NCC(=O)NCC(=O)N1CCC[C@H]1C(=O)N[C@@H](CO)C(=O)N[C@@H](CO)C(=O)NCC(=O)N[C@@H](C)C(=O)N1CCC[C@H]1C(=O)N1CCC[C@H]1C(=O)N1CCC[C@H]1C(=O)N[C@@H](CO)C(N)=O
GLP-1 receptor [9]
  EC50 (cAMP reporter): 7.8 pM
  relative activity (to native hormone): 315%
GIP receptor [7]
  EC50 (cAMP reporter): 3.1 pM
  relative activity (to native hormone): 434%
Glucagon receptor [8]
  EC50 (cAMP reporter): 3740 pM
  relative activity (to native hormone): 0.8%

## Y[Aib]EGTFISDYSIAMDKIHQQDFVNWLLAQKGKKNWLKHNITQ-NH2 (not fully specified) [mt-217 (SEQ ID NO: 19)]
GLP-1 receptor [1]
  EC50 (cAMP reporter): 222 pM
  relative activity (to native hormone): 11.3%
GIP receptor [2]
  EC50 (cAMP reporter): 9570 pM
  relative activity (to native hormone): 0.2%
Glucagon receptor [3]
  EC50 (cAMP reporter): 13900 pM
  relative activity (to native hormone): 0.82%

B6: mt-218 (SEQ ID NO: 20) (peptide)
peptide: YXEGTFISDYSIAMDKIHQQDFVNWLLAQKGKKNWLKHNITQ
modifications: not fully specified; AIB at position 2; C-terminal amide; Glu16-Lys20 lactam in some Table 3 peptides, absent in others (which ones is not stated)
GLP-1 receptor [1]
  EC50 (cAMP reporter): 338 pM
  relative activity (to native hormone): 7.4%
GIP receptor [2]
  EC50 (cAMP reporter): 14300 pM
  relative activity (to native hormone): 0.13%
Glucagon receptor [3]
  EC50 (cAMP reporter): 16300 pM
  relative activity (to native hormone): 0.7%

## Y[Aib]PGTFISDYSIAMDKIHQQDFVNWLLAQKGKKNWLKHNITQ-NH2 (not fully specified) [mt-219 (SEQ ID NO: 21)]
GLP-1 receptor [1]
  EC50 (cAMP reporter): 151 pM
  relative activity (to native hormone): 16.6%
GIP receptor [2]
  EC50 (cAMP reporter): 6160 pM
  relative activity (to native hormone): 0.31%
Glucagon receptor [3]
  EC50 (cAMP reporter): 17600 pM
  relative activity (to native hormone): 0.65%

## Y[Aib]EGTFISDYSIAMDKIHQQDFVCWLLAQKGKKNWLKHNITQ-NH2 (not fully specified) [mt-220 (SEQ ID NO: 22)]
GLP-1 receptor [1]
  EC50 (cAMP reporter): 180 pM
  relative activity (to native hormone): 13.9%
GIP receptor [2]
  EC50 (cAMP reporter): 10300 pM
  relative activity (to native hormone): 0.19%
Glucagon receptor [3]
  EC50 (cAMP reporter): 9670 pM
  relative activity (to native hormone): 1.18%

## Y[Aib]QGTFTSDYSIYLDEQAAKEFVNWLLAGGPSSGAPPPSK([Ala-Cys(PEG 40 kDa)-Ac])-NH2 (lactam 16-20) [mt-225 (SEQ ID NO: 23)]
GLP-1 receptor [1]
  EC50 (cAMP reporter): 98 pM
GIP receptor [2]
  EC50 (cAMP reporter): 1900 pM
Glucagon receptor [3]
  EC50 (cAMP reporter): 2710 pM

## Y[Aib]PGTFISDYSIAMDKIHQQDFVCWLLAQKGKKNWLKHNITQ-NH2 (not fully specified) [mt-226 (SEQ ID NO: 24)]
GLP-1 receptor [1]
  EC50 (cAMP reporter): 97 pM
GIP receptor [2]
  EC50 (cAMP reporter): 1470 pM
Glucagon receptor [3]
  EC50 (cAMP reporter): 3460 pM
